Source: the supplement of paper PMC9112550, “Optimization of the antimicrobial peptide Bac7 by deep mutational scanning” (BMC Biology, 2022)

Test system: Escherichia coli TOP10
Assay: shrunken log2 fold change of peptide-encoding DNA abundance (4.5 h post-induction vs induction); higher = less antimicrobial activity (less host growth inhibition)
Conditions: time post-induction: 4.5 h; library: site-saturation at positions 5, 18, 19, 20
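Note: peptides expressed intracellularly from a pBAD plasmid library in pooled LB shake-flask culture, induced with 0.3% L-arabinose, DNA abundance read by NGS, three biological replicates, DESeq2 with apeglm shrinkage.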

Sequence | shrunken log2 fold change
RRIRWRPPRLPRPRPRPRMGPRP | 0.357
RRIRQRPPRLPRPRPRPTVIPRP | -0.0817
RRIRVRPPRLPRPRPRPVMNPRP | -0.19
RRIRGRPPRLPRPRPRPSAIPRP | 1.3
RRIRTRPPRLPRPRPRPVHHPRP | -0.321
RRIRCRPPRLPRPRPRPNSLPRP | -0.0801
RRIRTRPPRLPRPRPRPHILPRP | -0.00363
RRIRHRPPRLPRPRPRPVLDPRP | -0.116
RRIRSRPPRLPRPRPRPFTVPRP | -0.0157
RRIRYRPPRLPRPRPRPTPLPRP | 0.0136
RRIRLRPPRLPRPRPRPGRAPRP | 0.469
RRIRSRPPRLPRPRPRPWIYPRP | -0.187
RRIRYRPPRLPRPRPRPFNMPRP | -0.202
RRIRQRPPRLPRPRPRPQQRPRP | 0.0983
RRIRDRPPRLPRPRPRPCLMPRP | 0.209
RRIRLRPPRLPRPRPRPASEPRP | 0.159
RRIRARPPRLPRPRPRPETFPRP | -0.0526
RRIRDRPPRLPRPRPRPYLCPRP | -0.148
RRIRERPPRLPRPRPRPRPIPRP | 0.345
RRIRSRPPRLPRPRPRPPAFPRP | -0.00342
RRIRSRPPRLPRPRPRPVWEPRP | 0.118
RRIRQRPPRLPRPRPRPLSQPRP | -0.0534
RRIRGRPPRLPRPRPRPIWQPRP | 0.349
RRIRERPPRLPRPRPRPDGAPRP | 0.129
RRIRVRPPRLPRPRPRPPNAPRP | 0.295

Sequence | shrunken log2 fold change
RRIRHRPPRLPRPRPRPEPQPRP | 0.39
RRIRVRPPRLPRPRPRPAYNPRP | -0.394
RRIRRRPPRLPRPRPRPFELPRP | -0.249
RRIRTRPPRLPRPRPRPAINPRP | 0.0461
RRIRYRPPRLPRPRPRPCHVPRP | -0.0447
RRIRKRPPRLPRPRPRPRGHPRP | 0.189
RRIRDRPPRLPRPRPRPSHDPRP | -0.339
RRIRWRPPRLPRPRPRPYQFPRP | -0.00205
RRIRVRPPRLPRPRPRPAGLPRP | 0.192
RRIRCRPPRLPRPRPRPALTPRP | 0.224
RRIRTRPPRLPRPRPRPYNCPRP | -0.168
RRIRQRPPRLPRPRPRPFMYPRP | 0.000979
RRIRSRPPRLPRPRPRPDYSPRP | -0.464
RRIRCRPPRLPRPRPRPYYDPRP | -0.361
RRIRHRPPRLPRPRPRPNDWPRP | 0.339
RRIRHRPPRLPRPRPRPEHDPRP | -0.051
RRIRWRPPRLPRPRPRPCCMPRP | -0.196
RRIRVRPPRLPRPRPRPATIPRP | -0.101
RRIRVRPPRLPRPRPRPVTYPRP | -0.288
RRIRNRPPRLPRPRPRPASLPRP | 0.0991
RRIRHRPPRLPRPRPRPYNPPRP | -1.07
RRIRERPPRLPRPRPRPMAVPRP | 0.19
RRIRWRPPRLPRPRPRPDIAPRP | 0.0944
RRIRIRPPRLPRPRPRPMPMPRP | -0.0159
RRIRNRPPRLPRPRPRPVLCPRP | 0.0343

Sequence | shrunken log2 fold change
RRIRGRPPRLPRPRPRPTGCPRP | 0.562
RRIRWRPPRLPRPRPRPQHLPRP | -0.678
RRIRQRPPRLPRPRPRPDEDPRP | -0.0326
RRIRDRPPRLPRPRPRPVQIPRP | -0.0711
RRIRSRPPRLPRPRPRPCPPPRP | -0.244
RRIRIRPPRLPRPRPRPSDNPRP | -0.421
RRIRQRPPRLPRPRPRPLYRPRP | 0.0401
RRIRKRPPRLPRPRPRPTPLPRP | 0.848
RRIRYRPPRLPRPRPRPMLEPRP | 0.0653
RRIRHRPPRLPRPRPRPSYEPRP | -0.503
RRIRSRPPRLPRPRPRPMVMPRP | 0.0113
RRIRYRPPRLPRPRPRPAHYPRP | -0.18
RRIRGRPPRLPRPRPRPLNPPRP | 0.215
RRIRERPPRLPRPRPRPQKRPRP | 0.462
RRIRQRPPRLPRPRPRPLCKPRP | -0.406
RRIRGRPPRLPRPRPRPQHFPRP | 0.139
RRIRERPPRLPRPRPRPSNPPRP | -0.681
RRIRMRPPRLPRPRPRPTIDPRP | 0.0912
RRIRFRPPRLPRPRPRPQWFPRP | -0.344
RRIRFRPPRLPRPRPRPWHWPRP | 0.00852
RRIRIRPPRLPRPRPRPWWHPRP | -0.218
RRIRERPPRLPRPRPRPVMQPRP | 0.095
RRIRRRPPRLPRPRPRPYAIPRP | -0.252
RRIRDRPPRLPRPRPRPQLWPRP | 0.92
RRIRVRPPRLPRPRPRPIAWPRP | 0.468

Sequence | shrunken log2 fold change
RRIRMRPPRLPRPRPRPGHHPRP | 0.209
RRIRARPPRLPRPRPRPGCVPRP | 0.851
RRIRLRPPRLPRPRPRPWWYPRP | -0.227
RRIRIRPPRLPRPRPRPKHYPRP | -0.44
RRIRHRPPRLPRPRPRPVVPPRP | -0.0888
RRIRIRPPRLPRPRPRPCYLPRP | -0.0394
RRIRNRPPRLPRPRPRPDGEPRP | -0.00776
RRIRHRPPRLPRPRPRPDIFPRP | -0.223
RRIRQRPPRLPRPRPRPKKSPRP | -0.197
RRIRLRPPRLPRPRPRPMCVPRP | -0.231
RRIRLRPPRLPRPRPRPKWFPRP | 0.154
RRIRERPPRLPRPRPRPLGDPRP | -0.0627
RRIRDRPPRLPRPRPRPRIRPRP | -0.0469
RRIRARPPRLPRPRPRPFGSPRP | -0.0315
RRIRVRPPRLPRPRPRPEYSPRP | -0.273
RRIRRRPPRLPRPRPRPRASPRP | 0.527
RRIRNRPPRLPRPRPRPLGAPRP | 0.413
RRIRCRPPRLPRPRPRPFYHPRP | -0.668
RRIRKRPPRLPRPRPRPWDHPRP | -0.0434
RRIRNRPPRLPRPRPRPKYPPRP | -0.137
RRIRTRPPRLPRPRPRPQKTPRP | -0.0581
RRIRHRPPRLPRPRPRPQKSPRP | -0.138
RRIRCRPPRLPRPRPRPKFAPRP | 0.0822
RRIRSRPPRLPRPRPRPLWCPRP | 0.148
RRIRFRPPRLPRPRPRPTIKPRP | -0.223

Sequence | shrunken log2 fold change
RRIRHRPPRLPRPRPRPGKAPRP | -0.0115
RRIRNRPPRLPRPRPRPVFWPRP | 0.219
RRIRMRPPRLPRPRPRPDQNPRP | 0.405
RRIRHRPPRLPRPRPRPRNKPRP | -0.2
RRIRSRPPRLPRPRPRPINVPRP | -0.418
RRIRHRPPRLPRPRPRPIVSPRP | -0.0219
RRIRRRPPRLPRPRPRPQIHPRP | -0.515
RRIRRRPPRLPRPRPRPCIMPRP | -0.191
RRIRRRPPRLPRPRPRPTCCPRP | 0.397
RRIRVRPPRLPRPRPRPIAFPRP | -0.207
RRIRRRPPRLPRPRPRPRIGPRP | 0.0791
RRIRCRPPRLPRPRPRPQVVPRP | -0.266
RRIRDRPPRLPRPRPRPVQTPRP | -0.0375
RRIRVRPPRLPRPRPRPPCIPRP | -0.00689
RRIRRRPPRLPRPRPRPWMAPRP | 0.0421
RRIRLRPPRLPRPRPRPGISPRP | -0.00752
RRIRVRPPRLPRPRPRPMLKPRP | -0.293
RRIRSRPPRLPRPRPRPEQSPRP | 0.22
RRIRKRPPRLPRPRPRPCASPRP | 0.0419
RRIRVRPPRLPRPRPRPAAAPRP | 0.69
RRIRYRPPRLPRPRPRPVQWPRP | -0.126
RRIRERPPRLPRPRPRPGTTPRP | -0.433
RRIRWRPPRLPRPRPRPYKFPRP | -0.22
RRIRMRPPRLPRPRPRPSTHPRP | 0.021
RRIRIRPPRLPRPRPRPHCLPRP | -0.104
